Assay results as given in paper PMC6079037.
“And” between values parts separate entries of the source, which are not always exact repeats. Equal values may be shown once. Each block holds one substance with its values, some of them ahead of it.

Experiments:
[1] = target: NoHmTSP.V5, truncated HmTSP comprising the N-terminal domain plus the putative oligomerization region (aa 1-296) (Hydra magnipapillata); assay: non-reducing SDS-PAGE and immunoblot; V5-tagged proteins from conditioned media of transfected COS7 cells, collected on Talon resin, boiled in SDS sample buffer without DTT; 7% SDS-polyacrylamide gels; V5 antibody blot
[2] = target: HmTSPcc, 25aa synthetic peptide corresponding to HmTSP residues 249-273 (Hydra magnipapillata); assay: AUC; sedimentation equilibrium; HmTSPcc 400 uM in PBS, 20 °C, 30,000-46,000 rpm; fitted to a single, ideal species model
[3] = target: full-length HmTSP-His (Hydra magnipapillata thrombospondin) (Hydra magnipapillata); assay: non-reducing SDS-PAGE and immunoblot; HmTSP-His from lysates of transfected HEK293T cells, collected on Ni-NTA, eluted in non-reducing SDS sample buffer; 4-20% gradient gels; anti-penta-His blot; laminin chains and prestained markers as size references

stoichiometry N [1]: 5 and 4
Substance: NoHmTSP.V5, truncated HmTSP comprising the N-terminal domain plus the putative oligomerization region (aa 1-296) (domain or fragment)

stoichiometry N (x monomer mass) [2]: 2.98
Substance: HmTSPcc, 25aa synthetic peptide corresponding to HmTSP residues 249-273

stoichiometry N [3]: > 4
Substance: full-length HmTSP-His (Hydra magnipapillata thrombospondin) (natural protein)
